Measured values published in patent US20200308261 (published 2020).

Key:
human Aβ 1-40 [1] = biological target: human Aβ 1-40 (human); test: ELISA sandwich, up to 10 ng/mL
rodent Aβ 3pE-40 = biological target: T1, rodent Aβ 3pE-40 (rodent); test: ELISA sandwich, up to 10 ng/mL
T1 chain: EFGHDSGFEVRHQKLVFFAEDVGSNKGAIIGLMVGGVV

human Aβ 1-42 = human Aβ 1-42 (human); test: ELISA sandwich, up to 10 ng/mL
human Aβ 11pE-40 = biological target: T2, human Aβ 11pE-40 (human); test: ELISA sandwich, up to 10 ng/mL
T2 chain: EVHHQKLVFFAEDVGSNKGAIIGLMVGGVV

human Aβ 11pE-42 = biological target: T3, human Aβ 11pE-42 (human); test: ELISA sandwich, up to 10 ng/mL
T3 chain: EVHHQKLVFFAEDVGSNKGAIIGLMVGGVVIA

human Aβ 1-40 [2] = biological target: human Aβ 1-40 (human); test: SPR up to 50 nM

Measured: binding result

B1: BAMB31 (antibody, V domains shown)
VH: EIQLQQSGPELVKPGTSVKVSCKASGHVFTSYDMYWVKQSHGKSLEWIGYIDSDNGDTSYNQKFKGKATLTVDKSSSTAYMHLNSLTSEDSAVYYCAYYRYAMDYWGQGTSVTVSS
VL: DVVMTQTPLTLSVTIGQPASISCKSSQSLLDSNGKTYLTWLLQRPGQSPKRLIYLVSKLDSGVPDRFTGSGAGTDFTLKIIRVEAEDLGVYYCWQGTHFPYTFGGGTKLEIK
not listed: human Aβ 1-40 [2]
no binding: all other assays above

B2: BAMB31_2a (mIgG2a) (antibody, V domains shown)
VH: EIQLQQSGPELVKPGTSVKVSCKASGHVFTSYDMYWVKQSHGKSLEWIGYIDSDNGDTSYNQKFKGKATLTVDKSSSTAYMHLNSLTSEDSAVYYCAYYRYAMDYWGQGTSVTVSS
VL: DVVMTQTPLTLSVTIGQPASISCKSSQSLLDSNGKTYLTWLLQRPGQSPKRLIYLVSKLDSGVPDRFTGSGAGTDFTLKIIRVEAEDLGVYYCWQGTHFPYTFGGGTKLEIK
no binding: human Aβ 1-40 [2]
